Source: PMC4771821, “Structural and spectroscopic characterisation of a heme peroxidase from sorghum” (Journal of Biological Inorganic Chemistry, 2015)

Substrate: COc1ccccc1O
Experiment: purified protein
Type: biochemical, Sorghum bicolor
Conditions: heme; Ca2+ raises activity

B1: SK 5912 sorghum peroxidase (cationic class III peroxidase) (Sorghum bicolor) (protein)
chain: ARQPPLAPGLSFDFYKRSCPKAESIVRSFVQDAVRRDVGLAAGLLRLHFHDCFVQGCDASVLLDGSATGPGEQQAPPNLTLRPTAFKAINDIHDRLHKECGGTVVSCSDVLALAARDSVVVSGGPSYKVPLGRRDSASFATQQDVLSGLPPPTAAVPALLAVLSKINLDATDLVALSGGHTIGLGHCTSFEDRLFPRPDPTLNATFAGQLRRTCPAKGTDRRTPLDVRTPNAFDNKYYVNLVNREGLFTSDQDLFSNARTRALVDKFARSQRDFFDQFAFSVVKMGQIKVLTGTQGQIRTNCSARNAAGTTMLPWSVSVVEEAADESLGVF
notes: native enzyme isolated from grain
  Km: 1600 ± 400 µM
